Reference: patent publication US20150353951A1, “SYNTHETIC GLYPHOSATE-RESISTANT GENE AND USE THEREOF” (priority 2012, published 2015)
“And” between values parts separate entries of the source, which are not always exact repeats. Equal values may be shown once. “Also recorded” adds a separate entry of the source.

Experiments:
[1] = tested on: G2-aroA protein; assay: Double-antibody sandwich ELISA detection of G2-aroA protein expression in transgenic maize leaves; type: in vivo; details: for G2-aroA protein concentration: T6 generation transgenic maize, five-leaf stage, leaf fresh weight, single plants 1-4; for expression amount of G2-aroA protein in per gram (fresh weight) of leaf plate: transgenic maize
Procedure: The sample extracting solution: 25 mM of Tris-Cl (pH8.0), 10 mM of KCl, 20 mM of MgCl2.6H2O, 1 mM of DTT, 1 mM of PMSF (added before using).
Taking T6 generation transgenic maize plants (including plants transformed with the mG2-aroA gene and plants transformed with G2-aroA gene) at the same growth state (five-leaf stage), and taking about 1 g (fresh weight) of each function leaf (top-three leaves) plates, then grinding in liquid nitrogen. Transferring into 10 ml of centrifugal tube, into which 3 ml of sample extracting solution was added, and shaking strongly. Then centrifugalizing for 1 h at 4° C. The supernatant was taken as a sample to be detected and stand by service. Since the transformed genes are different, there are two samples to be detected, that is, a sample derived from mG2-aroA transgenic plants (sample to be detected is mG2-aroA) and a sample derived from G2-aroA transgenic plants (sample to be detected is G2-aroA). At the same time, the T6 generation maize plants transformed with pS3300-UG0 blank vector and the non-transgenic maize plants were used as controls.
The weight weighting when the leaf plates were ground in liquid nitrogen into powder samples and added into centrifugal tube containing the extracting solution subtracts that weighting before adding sample into centrifugal tube containing the extracting solution to obtain the fresh weight described above.
(1) Coating: the primary antibody (rabbit antibody) with concentration of 1.5 mg/ml (preparation method, see last part of this specification) against G2-aroA protein was diluted in coating buffer. And then after dilution added into ELIAS plate with a volume ratio of 1:1000 between polyclonal antibody against G2-aroA protein and coating buffer, 100 μL per well, and coating overnight in wet box at 4° C. […]
In another aspect, the sample to be detected prepared in step 1 was diluted with sample buffer in a ratio of 1:5, and then 100 μL of diluted sample was added to each well. […]
(9) Measurement: the OD value was measured at 405 nm.
(10) Plotting the standard curve: the standard solution concentration of G2-aroA protein of various of concentration (ng/mL) was plotted on X axis, and the OD value of G2-aroA protein standard measured in step (9) was plotted on Y axis, then the standard curve was plotted by EXCEL.
(11) The OD value of sample to be detected measured in step (9) was used in standard curve equation obtained in step (10) to calculate the content of G2-aroA protein in sample to be detected.
The content of G2-aroA protein in fresh weight=the content of G2-aroA protein of sample to be detected×the volume of sample to be detected/fresh weight of the sample, unit: μg/g. […]

[2] = tested on: T6 generation transgenic maize plants; assay: Detection of herbicide (Roundup/glyphosate) resistance of transgenic maize plants in field; type: in vivo; details: for phytotoxicity after Roundup treatment: 800 ml/mu Roundup (41% glyphosate) at 5-6 leaf age; for phytotoxicity response at late stage of plants growth: 800 ml/mu Roundup at 5-6 leaf age
Procedure: 1. the experimental materials: T6 generation transgenic maize plants, including plants transformed with mG2-aroA gene, plants transformed with G2-aroA gene, and plants transformed with pS3300-UG0 blank vector. At the same time, the non-transgenic maize plants were used as a control.
2. experiment design: 5M of row length, 3 row plots, 3 times of repeat, density: 60×35 cm
3. experiment treatment: applying Roundup (containing 41% of glyphosate, recommbinated applying amount in field is 150-250 ml/mu) in an amount of 800 ml/mu.
4. the experiment treatment timing: 5-6 leaf age. The experimental result was observed 7 days later.

Molecule | G2-aroA protein concentration [1] | expression amount of G2-aroA protein in per gram (fresh weight) of leaf plate [1] | phytotoxicity after Roundup treatment [2] | phytotoxicity response at late stage of plants growth [2]
mG2-aroA: codons optimized glyphosate-resistant gene, SEQ ID NO. 2, encoding G2-aroA protein; tested as T6 transgenic maize (nucleic acid) DNA: ATGGCGTGCCTCCCTGACGATTCTGGTCCGCATGTCGGACACTCCACTCCACCTCGCCTGGACCAGGAGCCCTGTACCTTGTCGTCCCAGAAGACGGTTACGGTGACGCCACCCAACTTCCCGTTGACTGGGAAGGTCGCTCCACCTGGCTCCAAGTCTATCACCAACCGTGCACTGTTGCTGGCTGCGTTGGCCAAAGGGACCAGTCGGTTGAGCGGTGCGCTCAAGTCGGATGACACTCGCCACATGTCGGTGGCTCTGAGGCAGATGGGTGTCACGATCGACGAACCGGATGACACGACCTTCGTGGTCACGAGCCAAGGCAGCCTCCAGCTGCCAGCCCAACCGTTGTTCCTCGGCAATGCTGGCACCGCTATGCGCTTCCTCACGGCTGCGGTGGCCACCGTCCAAGGCACGGTCGTTCTGGATGGCGATGAGTACATGCAGAAGCGTCCCATCGGACCCTTGCTGGCGACGCTTGGACAGAACGGCATCCAAGTGGATTCTCCCACCGGTTGCCCACCCGTCACCGTGCACGGCATGGGCAAGGTCCAAGCGAAGCGGTTCGAGATCGACGGTGGGCTCTCCTCCCAGTACGTCTCAGCCCTGCTCATGCTCGCTGCGTGTGGCGAGGCACCGATCGAGGTTGCGCTCACAGGCAAGGACATCGGTGCCAGAGGGTACGTGGACCTGACCCTCGACTGCATGAGAGCCTTTGGAGCACAGGTTGACGCAGTGGACGACACGACCTGGAGGGTCGCTCCCACAGGGTACACCGCTCATGACTATCTCATCGAACCCGACGCCAGCGCTGCGACGTACTTGTGGGCAGCCGAGGTCCTGACCGGTGGCAGGATTGATATTGGCGTTGCTGCGCAGGACTTCACCCAACCGGACGCCAAGGCTCAAGCCGTGATTGCGCAGTTCCCTAACATGCAAGCCACCGTGGTTGGCTCCCAGATGCAGGACGCGATCCCGACCCTGGCTGTCCTCGCAGCCTTCAACAATACTCCCGTGCGCTTCACTGAGCTTGCCAACCTTAGGGTCAAGGAGTGCGATCGCGTGCAAGCCCTGCACGATGGGCTCAACGAGATCAGGCCAGGCCTCGCCACCATCGAGGGAGACGACCTGCTCGTGGCCAGCGACCCAGCGCTTGCAGGGACAGCCTGCACAGCCCTGATCGACACCCACGCTGACCATCGCATCGCGATGTGCTTTGCCCTGGCTGGCCTTAAGGTCTCAGGCATTCGCATTCAGGACCCTGACTGCGTGGCCAAGACCTACCCTGACTACTGGAAGGCTCTTGCCAGCCTTGGCGTTCACCTCAACGACTGATGA | 3.304 µg/g and 2.977 µg/g and 4.321 µg/g and 4.339 µg/g | up to 15.057 μg | phytotoxicity was not obvious, they grew normally | no phytotoxicity response
G2-aroA: initial prokaryote glyphosate-resistant gene, SEQ ID NO. 1; tested as T6 transgenic maize (nucleic acid) DNA: ATGGCGTGTTTGCCTGATGATTCGGGTCCGCATGTCGGCCACTCCACGCCACCTCGCCTTGACCAGGAGCCTTGTACCTTGAGTTCGCAGAAAACCGTGACCGTTACACCGCCCAACTTCCCCCTCACTGGCAAGGTCGCGCCCCCCGGCTCCAAATCCATTACCAACCGTGCGCTGTTGCTGGCGGCATTGGCCAAGGGCACCAGCCGTTTGAGCGGTGCGCTCAAAAGCGATGACACGCGCCACATGTCGGTCGCCCTGCGGCAGATGGGCGTCACCATCGACGAGCCGGACGACACCACCTTTGTGGTCACCAGCCAAGGCTCGCTGCAATTGCCGGCCCAGCCGTTGTTCCTCGGCAACGCTGGCACCGCCATGCGCTTTCTCACGGCTGCCGTGGCCACCGTGCAAGGCACCGTGGTACTGGACGGCGACGAGTACATGCAAAAACGCCCGATTGGCCCGCTGCTGGCTACCCTGGGCCAGAACGGCATCCAGGTCGACAGCCCCACCGGTTGCCCACCGGTCACCGTGCACGGCATGGGCAAGGTCCAGGCCAAGCGTTTCGAGATTGATGGTGGTTTGTCCAGCCAGTACGTATCGGCCCTGCTGATGCTCGCGGCGTGCGGCGAAGCGCCGATTGAAGTGGCGCTGACCGGCAAGGATATCGGTGCCCGTGGCTACGTGGACCTGACCCTCGACTGCATGCGTGCCTTCGGGGCCCAGGTGGACGCCGTGGACGACACCACCTGGCGCGTCGCCCCCACCGGCTATACCGCCCATGATTACCTGATCGAACCCGATGCGTCCGCCGCCACGTATTTGTGGGCCGCAGAAGTGCTGACCGGTGGGCGTATCGACATCGGCGTAGCCGCGCAGGACTTCACCCAGCCCGACGCCAAGGCCCAGGCCGTGATTGCGCAGTTCCCGAACATGCAAGCCACGGTGGTAGGCTCGCAAATGCAGGATGCGATCCCGACCCTGGCGGTGCTCGCCGCGTTCAACAACACCCCGGTGCGTTTCACTGAACTGGCGAACCTGCGCGTCAAGGAATGTGACCGCGTGCAGGCGCTGCACGATGGCCTCAACGAAATTCGCCCGGGCCTGGCGACCATCGAGGGCGATGACCTGCTGGTCGCCAGCGACCCGGCCCTGGCAGGCACCGCCTGCACCGCACTGATCGACACCCACGCCGACCATCGCATCGCCATGTGCTTTGCCCTGGCCGGGCTTAAAGTCTCGGGCATTCGCATTCAAGACCCGGACTGCGTGGCCAAGACCTACCCTGACTACTGGAAAGCCCTGGCCAGCCTGGGCGTTCACCTAAACGACTGA | 10.671 µg/g and 20.227 µg/g and 14.237 µg/g and 15.096 µg/g | 3.735 µg | very serious phytotoxicity, and all plants showed yellowing, abnormalities; also recorded: phytotoxicity was very serious, plants all show yellowing, abnormalities | most of plants showed that the tassels did not differentiate, and ears did not silk or plants were short
